Source: patent US20210338809A1, “Immune Tolerance-Inducing Agent and Therapeutic or Prophylactic Agent for Allergic Disorder” (Tokushima University, priority 2018, published 2021)

What was measured:
[1] = tested on: OVA transdermally sensitized model mice; experiment: Anaphylaxis-eliciting test using aspirin pre-administration and oral OVA challenge, rectal temperature monitoring; format: in vivo, mouse; settings: for change in rectal temperature: from 30 minutes after challenge
Description: Balb/c mice (6-7 weeks old, female) were subjected to hair removal on the back of the head with hair clippers, then, 100 μL of aqueous SDS solution (4%) was uniformly applied to damage their skin barrier function, and after 10 minutes, 100 μL of an aqueous solution of ovomucoid (OVM) (manufactured by NACALAI TESQUE, INC.) (10 mg/mL), 100 μL of an aqueous solution of ovalbumin (OVA) (manufactured by Sigma-Aldrich) (10 mg/mL), or 100 μL of an aqueous solution of casein (manufactured by Sigma-Aldrich) (10 mg/mL) was uniformly applied. Such allergen applications were carried out a total of 10 times (for 2 weeks with a frequency of 5 times/week) to generate a transdermally sensitized food allergic mouse model against OVM, OVA, or casein. The mice 10-14 days after transdermal sensitization were subjected to the following experiments.
In accordance with the schedule shown in FIG. 1, the present inventors performed two types of loadings of “ASA pre-administration” and “allergen oral administration” in combination on the allergen transdermally sensitized mouse model of the present invention to examine whether anaphylaxis could be reliably elicited. Experimental procedures and results are shown in the following (1) to (4).
The OVA transdermally sensitized model mice (body weight of about 20 g) of the present invention were fasted for 2 hours or more and then oral administration of ASA (manufactured by Sigma-Aldrich) dissolved in 50% ethanol (1.25 mg/100 μL/mouse) was performed. Also, as a control, a group was provided to which oral pre-administration of 50% ethanol alone without ASA was performed.
Thirty minutes after the pre-administration of ASA or ethanol, an aqueous OVA solution (manufactured by Sigma-Aldrich) was orally challenged (20 mg/100 μL/mouse). In addition, as a control, a group was provided to which only water (without OVA) was orally administered.
In this experiment, rectal temperatures were measured at 10-minute intervals starting from 10 minutes before OVA administration and for 90 to 120 minutes after administration. Then, the temperature change after OVA administration was monitored using the temperature 10 minutes before OVA administration as a reference value. It was determined that the mouse developed anaphylaxis when the rectal temperature decreased by 1° C. or more relative to the reference value.

[2] = tested on: casein transdermally sensitized mice; experiment: Anaphylaxis-eliciting test by intraperitoneal challenge with casein after prophylactic immunization and casein transdermal sensitization; format: in vivo, mouse; settings: subcutaneous injection 1 μg casein twice before sensitization
[3] = tested on: transdermally sensitized OVM allergic mouse model; experiment: Anaphylaxis-eliciting test with trace amount of OVM alone; format: in vivo
Description: Specifically, the transdermally sensitized OVM allergic mouse model (body weight of about 20 g, n=10) was subjected to fasting and ASA administration before the challenge test in accordance with the procedures of Example 2. Then an oral OVM challenge test was performed. The oral OVM challenge test was performed by orally challenging with 0.01 μg of OVM once and examining change in rectal temperature for 60 minutes.

CC(=O)Oc1ccccc1C(=O)O [ASA/50% ethanol, acetylsalicylic acid, reference compound]
change in rectal temperature [1]: tendency of increase

casein
rectal temperature decrease in the other four cases [2]: worsening tendency | improvement of rectal temperature decrease after intraperitoneal challenge test ([2]; n=5): only one case

B1: ovomucoid (protein, UniProt P01005 25-210, looked up)
Ovomucoid: AEVDCSRFPNATDKEGKDVLVCNKDLRPICGTDGVTYTNDCLLCAYSIEFGTNISKEHDGECKETVPMNCSSYANTTSEDGKVMVLCNRAFNPVCGTDGVTYDNECLLCAHKVEQGASVDKRHDGGCRKELAAVSVDCSEYPKPDCTAEDRPLCGSDNKTYGNKCNFCNAVVESNGTLTLSHFGKC
induction of anaphylaxis ([3]; 0.01 μg OVM alone orally): does not induce anaphylaxis | rectal temperature after administration ([3]; 0.01 μg OVM alone orally once, 60 minutes, n=10, ASA pre-administered): did not decrease

B2: ovalbumin (protein, UniProt P01012 2-386, looked up)
Ovalbumin: GSIGAASMEFCFDVFKELKVHHANENIFYCPIAIMSALAMVYLGAKDSTRTQINKVVRFDKLPGFGDSIEAQCGTSVNVHSSLRDILNQITKPNDVYSFSLASRLYAEERYPILPEYLQCVKELYRGGLEPINFQTAADQARELINSWVESQTNGIIRNVLQPSSVDSQTAMVLVNAIVFKGLWEKAFKDEDTQAMPFRVTEQESKPVQMMYQIGLFRVASMASEKMKILELPFASGTMSMLVLLPDEVSGLEQLESIINFEKLTEWTSSNVMEERKIKVYLPRMKMEEKYNLTSVLMAMGITDVFSSSANLSGISSAESLKISQAVHAAHAEINEAGREVVGSAEAGVDAASVSEEFRADHPFLFCIKHIATNAVLFFGRCVSP
notes: ovalbumin, egg allergen
decrease in rectal temperature ([1]; 10 minutes after oral OVA challenge): around 1.1 °C | elicitation of anaphylaxis ([1]; oral OVA challenge 20 mg/mouse): extremely mild

B3: 50% ethanol+OVA: 50% ethanol alone pre-administered, followed by oral OVA challenge (protein, UniProt P01012 2-386, looked up)
Ovalbumin: B2 Ovalbumin
modifications: after 50% ethanol pretreatment
change in rectal temperature [1]: increase
